The target in test [1] is CCL8 (UniProt P80075).
The target in test [2] is CCL8 (UniProt P80075). This is another data set of the same source.

Ends that are not written are not given here.

Sequence of UniProt P80075 (P80075 24-99): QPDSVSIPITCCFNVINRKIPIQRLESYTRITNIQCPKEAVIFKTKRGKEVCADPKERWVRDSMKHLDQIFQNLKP

Regarding Evasin P672 (natural protein), the IC50 of inhibition of CCL8-induced THP1 cell migration with CCL8 [1] lay in the range of 4.6 to 10 nM. In the test with CCL8 [2], YEDEDYEDFFKPVTCYF (also: dimer via disulfide between the Cys of the two copies) [BK1.3 (17-mer synthetic dimeric peptide derived from Evasin P672)] displayed an IC50 of inhibition of CCL8-driven THP-1 cell migration (dose-response peptide titration) of 4.2 nM.

For the origin of these results see PMC11976344.
